Results on 22 molecules are retold here after patent EP4714976A1 (Sunshine Lake Pharma Co., Ltd., dated 2026).

Where a chain is given by its changes, count along the chain named.

The target of experiment [1] is T1, human FGFR2b (Kaixia Biotechnology, catalog number FGR-HM1BB) (human, UniProt P21802-3 22-378).
T1 construct: extracellular domain; bought; also called hFGFR2b; human FGFR2b protein
Put plainly: BLI, antibody on AHC2 sensor.

A further experiment deals with T2, FGFR2b on KATO III cells (human, UniProt P21802-3 22-822).
T2 construct: whole, on cells; also called KATO III cells that overexpress FGFR2b
T2 sequence (P21802 other isoform, or with tags, fused parts or gaps): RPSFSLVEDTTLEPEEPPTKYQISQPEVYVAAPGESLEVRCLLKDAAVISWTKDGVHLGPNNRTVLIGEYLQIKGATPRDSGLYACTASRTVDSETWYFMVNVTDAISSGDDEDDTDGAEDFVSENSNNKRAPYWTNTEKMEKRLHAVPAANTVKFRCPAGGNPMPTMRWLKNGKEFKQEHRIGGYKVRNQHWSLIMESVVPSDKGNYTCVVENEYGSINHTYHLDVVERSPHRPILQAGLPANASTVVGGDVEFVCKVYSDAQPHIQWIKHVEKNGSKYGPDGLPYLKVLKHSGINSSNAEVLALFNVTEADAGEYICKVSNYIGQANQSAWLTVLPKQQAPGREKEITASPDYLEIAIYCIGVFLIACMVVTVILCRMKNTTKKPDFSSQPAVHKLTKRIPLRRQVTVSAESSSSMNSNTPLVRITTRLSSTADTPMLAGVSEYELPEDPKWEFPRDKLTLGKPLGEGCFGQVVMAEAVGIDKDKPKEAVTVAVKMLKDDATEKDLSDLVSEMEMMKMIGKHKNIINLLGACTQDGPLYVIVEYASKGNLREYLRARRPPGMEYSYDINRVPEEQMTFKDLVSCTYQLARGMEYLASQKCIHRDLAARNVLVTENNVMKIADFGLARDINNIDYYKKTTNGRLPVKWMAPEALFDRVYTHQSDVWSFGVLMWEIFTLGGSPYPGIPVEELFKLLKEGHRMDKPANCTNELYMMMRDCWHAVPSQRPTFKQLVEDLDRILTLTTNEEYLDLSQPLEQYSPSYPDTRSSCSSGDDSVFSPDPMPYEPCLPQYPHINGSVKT
Put plainly: flow cytometry, KATO III cells. A general note: In flow cytometry, cells or beads pass a laser one at a time.

T1 sequence (P21802 other isoform, or with tags, fused parts or gaps): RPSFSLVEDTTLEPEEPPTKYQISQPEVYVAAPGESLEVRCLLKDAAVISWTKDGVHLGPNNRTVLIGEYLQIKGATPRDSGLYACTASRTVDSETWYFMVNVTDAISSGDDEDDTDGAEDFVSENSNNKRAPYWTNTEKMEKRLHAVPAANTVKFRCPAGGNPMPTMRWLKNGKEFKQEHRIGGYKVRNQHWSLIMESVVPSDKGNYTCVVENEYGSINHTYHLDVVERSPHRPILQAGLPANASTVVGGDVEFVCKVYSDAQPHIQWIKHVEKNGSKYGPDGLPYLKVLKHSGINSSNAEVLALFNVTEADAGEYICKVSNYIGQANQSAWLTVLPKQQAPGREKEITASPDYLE

B1: 3H9-VH1-VL1 (antibody, human IgG1, kappa, V domains shown)
VH: QVQLVQSGAEVKKPGASVKVSCKASGYTFTFYNMHWVRQAPGQGLEWIGLIYPDNGDTSYNQKFKGRATLTADTSTSTVYMELSSLRSEDTAVYYCARGGLDYWGQGTTVTVSS
VL: DIQMTQSPSSLSASVGDRVTITCRASENIYSNLAWYQQKPGKSPKLLIYAATNLADGVPSRFSGSGSGTDYTLTISSLQPEDFATYYCQHFWGTPYTFGGGTKVEIKR
notes: humanized IgG1
As a reminder, the Kd is the constant that tells how readily two partners part at equilibrium. A high value points to lower affinity. The koff is a measure of how fast the partners let go of each other. The kon is the rate constant with which the complex forms. A high value points to faster complex formation. The term EC50 denotes the concentration giving half of the maximal effect. Regarding B1, in experiment [1], the Kd worked out at 8.5 nM, the koff turned out to be 0.00241 s⁻¹ and the kon is 284000 M⁻¹ s⁻¹. Besides, the EC50 with FGFR2b on KATO III cells turned out to be 0.379 µg/mL.

B2: 3H9-VH0-VL2 (antibody, human IgG1, kappa)
heavy: not shown
light: DIQMTQSPSSLSASVGDRVTITCRASENIYSNLAWYQQKPGKSPKLLVYAATNLADGVPSRFSGSGSGTDYTLTISSLQPEDFATYYCQHFWGTPYTFGGGTKVEIKRTVAAPSVFIFPPSDEQLKSGTASVVCLLNNFYPREAKVQWKVDNALQSGNSQESVTEQDSKDSTYSLSSTLTLSKADYEKHKVYACEVTHQGLSSPVTKSFNRGEC
notes: humanized IgG1
In experiment [1], B2 returned a Kd of 5.06 nM, an off-rate (koff) of 0.00186 s⁻¹ and an association rate constant (kon) of 367000 M⁻¹ s⁻¹. Also, the EC50 with FGFR2b on KATO III cells worked out at 0.357 µg/mL.

B3: 3H9-VH1-VL0 (antibody, human IgG1, kappa, V domains shown)
VH: B1 VH
VL: B1 VL with S43A, Y71F
notes: humanized IgG1
In experiment [1], B3 had a Kd of 18.5 nM, a koff of 0.00433 s⁻¹ and an on-rate constant (kon) of 234000 M⁻¹ s⁻¹. This molecule also gave an EC50 with FGFR2b on KATO III cells of 0.378 µg/mL.

B4: 3H9-VH3-VL3 (antibody, human IgG1, kappa)
heavy: not shown
light: B2 light with V104L
notes: humanized IgG1
Turning to B4, in experiment [1], the Kd came out at 0.743 nM, the koff came to 0.000399 s⁻¹ and the on-rate constant (kon) worked out at 536000 M⁻¹ s⁻¹. The EC50 with FGFR2b on KATO III cells came out at 0.554 µg/mL.

B5: 3H9-VH2-VL1 (antibody, human IgG1, kappa, V domains shown)
VH: B1 VH with T30S
VL: B1 VL
notes: humanized IgG1
Consider B5, for which, in experiment [1], binding was put at a Kd of 1.32 nM, the dissociation rate constant (koff) came to 0.000752 s⁻¹ and the kon was 570000 M⁻¹ s⁻¹. Further, the EC50 with FGFR2b on KATO III cells stood at 0.309 µg/mL.

B6: 3H9-VH3-VL0 (antibody, human IgG1, kappa, V domains shown)
VH: B1 VH with T30S, R38K
VL: B1 VL with S43A, Y71F
notes: humanized IgG1
B6: in experiment [1], the dissociation constant Kd was 3.13 nM, the koff came to 0.000935 s⁻¹ and the on-rate (kon) came to 299000 M⁻¹ s⁻¹. This molecule also showed an EC50 with FGFR2b on KATO III cells of 0.437 µg/mL.

B7: 3H9-VH0-VL3 (antibody, human IgG1, kappa)
heavy: not shown
light: B2 light with V104L
notes: humanized IgG1
In experiment [1], B7 yielded a Kd of 5.09 nM, a koff of 0.00186 s⁻¹ and a kon of 366000 M⁻¹ s⁻¹. Further, the EC50 with FGFR2b on KATO III cells was found to be 0.469 µg/mL.

B8: 3H9-VH3-VL1 (antibody, human IgG1, kappa, V domains shown)
VH: B1 VH with T30S, R38K
VL: B1 VL
notes: humanized IgG1
Turning to B8, in experiment [1], binding was characterised by a dissociation constant (Kd) of 0.614 nM, the dissociation rate constant (koff) stood at 0.000324 s⁻¹ and the kon is 527000 M⁻¹ s⁻¹. For the same molecule, a half-maximal effect in the experiment with FGFR2b on KATO III cells (EC50) was put at 0.357 µg/mL.

B9: 3H9-VH2-VL2 (antibody, human IgG1, kappa)
heavy: not shown
light: B2 light
notes: humanized IgG1
For B9, in experiment [1], the Kd worked out at 1.9 nM, the koff is 0.000784 s⁻¹ and the association rate constant (kon) turned out to be 412000 M⁻¹ s⁻¹. In the experiment with FGFR2b on KATO III cells, the concentration giving a half-maximal response (EC50) was determined as 0.337 µg/mL.

B10: 3H9-VH0-VL1 (antibody, human IgG1, kappa, V domains shown)
VH: B1 VH with I48M
VL: B1 VL
notes: humanized IgG1
For the molecule B10, in experiment [1], the dissociation constant Kd came out at 3.55 nM, the dissociation rate constant (koff) amounted to 0.00179 s⁻¹ and the kon was 505000 M⁻¹ s⁻¹. The same molecule had an EC50 with FGFR2b on KATO III cells of 0.18 µg/mL.

B11: 3H9-VH0-VL0 (antibody, human IgG1, kappa, V domains shown)
VH: B1 VH with I48M
VL: B1 VL with S43A, Y71F
notes: humanized IgG1
Regarding B11, in experiment [1], the equilibrium dissociation constant (Kd) worked out at 6.51 nM, the off-rate (koff) was determined as 0.00301 s⁻¹ and the kon was determined as 463000 M⁻¹ s⁻¹. For the same molecule, it took 0.336 µg/mL to reach a half-maximal effect with FGFR2b on KATO III cells (EC50).

B12: 3H9-VH1-VL2 (antibody, human IgG1, kappa)
heavy: not shown
light: B2 light
notes: humanized IgG1
In experiment [1], B12 registered a Kd of 5.37 nM, a koff of 0.00232 s⁻¹ and a kon of 432000 M⁻¹ s⁻¹. Further, a half-maximal response with FGFR2b on KATO III cells (EC50) required 0.0909 µg/mL.

B13: 3H9-VH2-VL3 (antibody, human IgG1, kappa)
heavy: not shown
light: B2 light with V104L
notes: humanized IgG1
In experiment [1], B13 displayed a Kd of 1.37 nM, an off-rate (koff) of 0.000788 s⁻¹ and a kon of 575000 M⁻¹ s⁻¹. In the experiment with FGFR2b on KATO III cells, this molecule came in with an EC50 of 0.212 µg/mL.

B14: 3H9-VH2-VL0 (antibody, human IgG1, kappa, V domains shown)
VH: B1 VH with T30S
VL: B1 VL with S43A, Y71F
notes: humanized IgG1
Regarding B14, in experiment [1], the affinity, expressed as Kd, was 2.64 nM; the koff is 0.00125 s⁻¹; the kon was 473000 M⁻¹ s⁻¹. Also, the concentration for a half-maximal effect (EC50) in the experiment with FGFR2b on KATO III cells was found to be 0.332 µg/mL.

B15: 3H9-VH1-VL3 (antibody, human IgG1, kappa)
heavy: not shown
light: B2 light with V104L
notes: humanized IgG1
Regarding B15, in experiment [1], the Kd was 5.05 nM, the koff is 0.00254 s⁻¹ and the on-rate constant (kon) turned out to be 503000 M⁻¹ s⁻¹. The molecule further had a half-maximal effective concentration (EC50) with FGFR2b on KATO III cells of 0.215 µg/mL.

B16: 3H9-VH3-VL2 (antibody, human IgG1, kappa)
heavy: not shown
light: B2 light
notes: humanized IgG1
In experiment [1], B16 had a Kd of 0.709 nM, a dissociation rate constant (koff) of 0.000373 s⁻¹ and an association rate constant (kon) of 526000 M⁻¹ s⁻¹. For the same molecule, the concentration giving a half-maximal response (EC50) with FGFR2b on KATO III cells stood at 0.231 µg/mL.

B17: 3C7-VH2-VL2 (antibody, human IgG1, kappa, V domains shown)
VH: QVQLVQSGAEVKKPGASVKVSCKASGYIFRNYYIHWVRQAPGQGLEWMGAIYPDNGDTSYNQRFKVRATLTADTSTSTVYMELSSLRSEDTAVYYCARAFTYWGQGTTVTVSS
VL: DIQMTQSPSSLSASVGDRVTITCGASENIYGALNWYQRKPGKAPKLLIYGATNLADGVPSRFSGSGSGTDYTLTISSLQPEDFATYYCQNVLSTPYTFGGGTKLEIKR
notes: humanized IgG1
In experiment [1], B17 registered a Kd of 2.03 nM, an off-rate constant (koff) of 0.000884 s⁻¹ and a kon of 435000 M⁻¹ s⁻¹. The molecule also showed a half-maximal effective concentration (EC50) with FGFR2b on KATO III cells of 0.559 µg/mL.

B18: 3C7-VH1-VL2 (antibody, human IgG1, kappa, V domains shown)
VH: B17 VH with R30T
VL: B17 VL
notes: humanized IgG1
In the case of B18, in experiment [1], the Kd came to 2.71 nM, the off-rate constant (koff) was determined as 0.00115 s⁻¹ and the kon is 425000 M⁻¹ s⁻¹. The same molecule had an EC50 in the experiment with FGFR2b on KATO III cells of 0.601 µg/mL.

B19: 3C7-VH0-VL0 (antibody, human IgG1, kappa, V domains shown)
VH: B17 VH with I28T, R30T
VL: B17 VL with G24R, R38Q, Y71F, L104V
notes: humanized IgG1
In experiment [1], B19 displayed an equilibrium dissociation constant (Kd) of 10.4 nM, an off-rate constant (koff) of 0.00305 s⁻¹ and an on-rate (kon) of 293000 M⁻¹ s⁻¹. For the same molecule, the EC50 with FGFR2b on KATO III cells is 0.384 µg/mL.

B20: 3C7-VH0-VL1 (antibody, human IgG1, kappa, V domains shown)
VH: B17 VH with I28T, R30T
VL: B17 VL with R38Q, F83V, L104V
notes: humanized IgG1
As for B20, in experiment [1], the Kd was found to be 14 nM, the off-rate (koff) was found to be 0.00315 s⁻¹ and the on-rate constant (kon) is 224000 M⁻¹ s⁻¹. In the experiment with FGFR2b on KATO III cells, a half-maximal response (EC50) required 0.64 µg/mL.

B21: 3C7-VH0-VL2 (antibody, human IgG1, kappa, V domains shown)
VH: B17 VH with I28T, R30T
VL: B17 VL
notes: humanized IgG1
In the case of B21, in experiment [1], the Kd is 11.6 nM, the koff came out at 0.00313 s⁻¹ and the association rate constant (kon) turned out to be 269000 M⁻¹ s⁻¹. Moreover, a half-maximal effect in the experiment with FGFR2b on KATO III cells (EC50) was put at 0.528 µg/mL.

B22: FR21 (antibody, human IgG1, kappa, V domains shown)
VH: QVQLVQSGAEVKKPGSSVKVSCKASGYIFTTYNVHWVRQAPGQGLEWIGSIYPDNGDTSYNQNFKGRATITADKSTSTAYMELSSLRSEDTAVYYCARGDFAYWGQGTLVTVSS
VL: DIQMTQSPSSLSASVGDRVTITCKASQGVSNDVAWYQQKPGKAPKLLIYSASYRYTGVPSRFSGSGSGTDFTFTISSLQPEDIATYYCQQHSTTPYTFGQGTKLEIKR
notes: also called positive control antibody FR21; positive monoclonal antibody FR21
Consider B22, for which, in experiment [1], the dissociation constant (Kd) came out at 1.52 nM, the koff came out at 0.000424 s⁻¹ and the kon came out at 279000 M⁻¹ s⁻¹. Further, the midpoint of the response in the experiment with FGFR2b on KATO III cells, the EC50, lay at 0.586 µg/mL.
